Reference: the supplement of paper PMC9732359
± gives the uncertainty stated by the source.

Test: protein stability index of a GFP-peptide fusion (yeast GPS) (PSI 1-4); higher = more stable; sorted into four equal gates, so the index is relative within each strain
Outline: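 Peptides tiling yeast proteins in 17-residue segments were fused downstream of GFP, with Cherry expressed from the same plasmid. As a pooled library in yeast, mid-log cultures grown in leucine-free medium were sorted into four equal gates by GFP/Cherry fluorescence ratio. Gate plasmids were PCR-amplified and Illumina-sequenced, and barcodes linked reads to strains. Each peptide received a protein stability index equal to the sum of each gate's read frequency times its gate number.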

## KDEEIEKLLQQDREITN [MED8]
doa10∆
  protein stability index: 3.26 ± 0.13
pdr5∆
  protein stability index: 3.12 ± 0.13
san1∆
  protein stability index: 3.06 ± 0.24
ubr1∆
  protein stability index: 3.59 ± 0.14

## QKKVLIDGPKAGVPRQA [RPL14A]
doa10∆
  protein stability index: 3.45 ± 0.087
pdr5∆
  protein stability index: 3.35 ± 0.084
san1∆
  protein stability index: 3.05 ± 0.059
ubr1∆
  protein stability index: 3.35 ± 0.073

## RIVGSELIQKYLGDGPR [RPT2]
doa10∆
  protein stability index: 2.21 ± 0.14
pdr5∆
  protein stability index: 3.14 ± 0.16
san1∆
  protein stability index: 3.33 ± 0.27
ubr1∆
  protein stability index: 3.11 ± 0.13

## QNKLFYITNADDSTKFQ [SIR3]
doa10∆
  protein stability index: 2.96 ± 0.085
pdr5∆
  protein stability index: 3.02 ± 0.084
san1∆
  protein stability index: 3.01 ± 0.078
ubr1∆
  protein stability index: 3.27 ± 0.067

## MATLEELDAQTLPGDDE [RPT5]
doa10∆
  protein stability index: 3.31 ± 0.12
pdr5∆
  protein stability index: 3.28 ± 0.15
san1∆
  protein stability index: 3.35 ± 0.13
ubr1∆
  protein stability index: 3.49 ± 0.13

## SGTYHLNCGNGMGIGFI [POP1]
doa10∆
  protein stability index: 3.07 ± 0.077
pdr5∆
  protein stability index: 2.93 ± 0.063
san1∆
  protein stability index: 2.44 ± 0.077
ubr1∆
  protein stability index: 3.11 ± 0.041

## GSIPVDQVVVRGIDTLQ [RPB3]
doa10∆
  protein stability index: 2.14 ± 0.06
pdr5∆
  protein stability index: 2.02 ± 0.076
san1∆
  protein stability index: 1.89 ± 0.099
ubr1∆
  protein stability index: 2.5 ± 0.048

## AVVVRGRYAGKKVVIVK [RPL27A]
doa10∆
  protein stability index: 3.13 ± 0.11
pdr5∆
  protein stability index: 3.38 ± 0.067
san1∆
  protein stability index: 3.03 ± 0.074
ubr1∆
  protein stability index: 2.81 ± 0.082

## LSTLPAGKSLVSKSEPK [QCR2]
doa10∆
  protein stability index: 2.95 ± 0.17
pdr5∆
  protein stability index: 3.27 ± 0.1
san1∆
  protein stability index: 2.68 ± 0.11
ubr1∆
  protein stability index: 3.44 ± 0.14

## PKYRDNLATWYHSAGGR [SSN3]
doa10∆
  protein stability index: 2.95 ± 0.066
pdr5∆
  protein stability index: 3.28 ± 0.08
san1∆
  protein stability index: 3.1 ± 0.059
ubr1∆
  protein stability index: 2.99 ± 0.059

## GSIQKGMPHKFYQGKTG [RPL21A]
doa10∆
  protein stability index: 3.07 ± 0.14
pdr5∆
  protein stability index: 3.06 ± 0.16
san1∆
  protein stability index: 2.9 ± 0.21
ubr1∆
  protein stability index: 2.51 ± 0.28

## LNFSTTAPANTTDANGS [MED2]
doa10∆
  protein stability index: 2.06 ± 0.061
pdr5∆
  protein stability index: 2.08 ± 0.051
san1∆
  protein stability index: 2.58 ± 0.056
ubr1∆
  protein stability index: 2.78 ± 0.057

## FDRHCNMVLENVKELWT [SMD2]
doa10∆
  protein stability index: 2.37 ± 0.081
pdr5∆
  protein stability index: 2.38 ± 0.088
san1∆
  protein stability index: 1.84 ± 0.1
ubr1∆
  protein stability index: 2.03 ± 0.1

## EVQCTSTPYLEILVEES [PCI8]
doa10∆
  protein stability index: 2.3 ± 0.067
pdr5∆
  protein stability index: 2.96 ± 0.18
san1∆
  protein stability index: 2.33 ± 0.14
ubr1∆
  protein stability index: 2.64 ± 0.083

## KLLFDHDELDMNECIAD [ESC2]
san1∆
  protein stability index: 1.03 ± 0.22

## RGGVKRISGLIYEEVRA [HHF1]
doa10∆
  protein stability index: 3.35 ± 0.13
pdr5∆
  protein stability index: 3.13 ± 0.2
san1∆
  protein stability index: 3.15 ± 0.11

## EFGTYGKYVIAGHVSGV [RPN14]
doa10∆
  protein stability index: 1.57 ± 0.14
pdr5∆
  protein stability index: 1.57 ± 0.22
san1∆
  protein stability index: 1.25 ± 0.3

## KRVDFSGRTVISPDPNL [RPO31]
doa10∆
  protein stability index: 2.44 ± 0.1
pdr5∆
  protein stability index: 2.65 ± 0.11
san1∆
  protein stability index: 3.2 ± 0.14
ubr1∆
  protein stability index: 2.83 ± 0.086

## NHTAHNQTRKAHRNGIK [RPL29]
doa10∆
  protein stability index: 1.88 ± 0.047
pdr5∆
  protein stability index: 2.56 ± 0.059
san1∆
  protein stability index: 2.32 ± 0.06
ubr1∆
  protein stability index: 2.57 ± 0.052

## VDDDQDYVVAPGVNREI [GRR1]
doa10∆
  protein stability index: 3.17 ± 0.13
pdr5∆
  protein stability index: 3.13 ± 0.15
san1∆
  protein stability index: 3.31 ± 0.2
ubr1∆
  protein stability index: 3.29 ± 0.2

## RKWVIFITKHLPLLILE [NUT1]
doa10∆
  protein stability index: 1.7 ± 0.067
pdr5∆
  protein stability index: 1.25 ± 0.045
san1∆
  protein stability index: 1.21 ± 0.1
ubr1∆
  protein stability index: 1.2 ± 0.03

## QNNEQNPIDPFNIIREF [YDL116W/NUP84]
doa10∆
  protein stability index: 3.07 ± 0.052
pdr5∆
  protein stability index: 3.15 ± 0.051
san1∆
  protein stability index: 3.2 ± 0.04
ubr1∆
  protein stability index: 3.17 ± 0.041

## KSTYRTPNFDDVLKENN [RIP1]
doa10∆
  protein stability index: 1.54 ± 0.087
pdr5∆
  protein stability index: 1.45 ± 0.12
san1∆
  protein stability index: 1.38 ± 0.14
ubr1∆
  protein stability index: 2.1 ± 0.079

## EIKKMIITNINAIFLSS [YCG1]
doa10∆
  protein stability index: 2.49 ± 0.11
pdr5∆
  protein stability index: 1.94 ± 0.088
san1∆
  protein stability index: 1.8 ± 0.081
ubr1∆
  protein stability index: 1.81 ± 0.12

## QTSRGLFGNNNTNNINN [YGL172W/NUP49]
doa10∆
  protein stability index: 3.1 ± 0.18
pdr5∆
  protein stability index: 3.04 ± 0.13
san1∆
  protein stability index: 3.13 ± 0.16
ubr1∆
  protein stability index: 3.14 ± 0.16

## TMTISHLLLGFQVSNVI [YJL039C/NUP192]
doa10∆
  protein stability index: 1.41 ± 0.038
pdr5∆
  protein stability index: 1.72 ± 0.039
san1∆
  protein stability index: 1.75 ± 0.06
ubr1∆
  protein stability index: 1.77 ± 0.034

## LAEIKKTPLLKQYLSAS [RPL6B]
doa10∆
  protein stability index: 1.54 ± 0.038
pdr5∆
  protein stability index: 1.55 ± 0.049
san1∆
  protein stability index: 1.24 ± 0.094
ubr1∆
  protein stability index: 1.51 ± 0.036

## LKNLLRSNFRVNLSQEA [SNU114]
doa10∆
  protein stability index: 2.05 ± 0.093
pdr5∆
  protein stability index: 2.26 ± 0.089
san1∆
  protein stability index: 2.58 ± 0.11
ubr1∆
  protein stability index: 2.58 ± 0.11

## ADLERFFLSIYFFYASR [YJL039C/NUP192]
doa10∆
  protein stability index: 1.68 ± 0.073
pdr5∆
  protein stability index: 1.12 ± 0.13
san1∆
  protein stability index: 1.22 ± 0.12
ubr1∆
  protein stability index: 1.55 ± 0.072

## PGTTSTGNNNNIATQQN [GAL11]
doa10∆
  protein stability index: 2.03 ± 0.052
pdr5∆
  protein stability index: 2.69 ± 0.081
san1∆
  protein stability index: 2.77 ± 0.085
ubr1∆
  protein stability index: 2.73 ± 0.056

## FFAAIRFVLSDDYSNLK [SMC3]
doa10∆
  protein stability index: 2.27 ± 0.091
pdr5∆
  protein stability index: 2.68 ± 0.13
san1∆
  protein stability index: 2.56 ± 0.1
ubr1∆
  protein stability index: 2.7 ± 0.07

## KNIPKTRYNRDYMLSMA [SNU114]
doa10∆
  protein stability index: 1.94 ± 0.054
pdr5∆
  protein stability index: 2.4 ± 0.054
san1∆
  protein stability index: 2.9 ± 0.056
ubr1∆
  protein stability index: 1.87 ± 0.039

## KNEKLKFQETLLRQKIE [ISW2]
doa10∆
  protein stability index: 1.36 ± 0.11
pdr5∆
  protein stability index: 1.37 ± 0.13
san1∆
  protein stability index: 1.16 ± 0.15
ubr1∆
  protein stability index: 1.15 ± 0.071

## FNGYNPEKKEMIQEVIV [FAS2]
doa10∆
  protein stability index: 3.39 ± 0.086
pdr5∆
  protein stability index: 3.46 ± 0.1
san1∆
  protein stability index: 3.4 ± 0.08
ubr1∆
  protein stability index: 3.4 ± 0.11

## QDDDFPLDDAGTIGWDL [MCD1]
doa10∆
  protein stability index: 3.04 ± 0.08
pdr5∆
  protein stability index: 3.25 ± 0.081
san1∆
  protein stability index: 3.36 ± 0.06
ubr1∆
  protein stability index: 3.06 ± 0.068

## YPDLCSIYDKWTDPNLK [RPN1]
doa10∆
  protein stability index: 2.69 ± 0.091
pdr5∆
  protein stability index: 2.66 ± 0.072
san1∆
  protein stability index: 2.21 ± 0.11
ubr1∆
  protein stability index: 2.93 ± 0.085

## DSSYQDIFAVNLEESSK [RET1]
pdr5∆
  protein stability index: 2.09 ± 0.25
san1∆
  protein stability index: 2.29 ± 0.26

## QEAIQQNRRLAFEELEG [PRP8]
doa10∆
  protein stability index: 2.24 ± 0.12
pdr5∆
  protein stability index: 2.62 ± 0.28
san1∆
  protein stability index: 2.74 ± 0.24
ubr1∆
  protein stability index: 2.75 ± 0.12

## EILRIHSRKMNLTRGIN [RPT6]
doa10∆
  protein stability index: 2.85 ± 0.06
pdr5∆
  protein stability index: 2.99 ± 0.071
san1∆
  protein stability index: 2.29 ± 0.075
ubr1∆
  protein stability index: 2.52 ± 0.06

## ESKLRDDLERLKKIRAH [RPS18A]
doa10∆
  protein stability index: 2.78 ± 0.13
pdr5∆
  protein stability index: 1.98 ± 0.087
san1∆
  protein stability index: 1.5 ± 0.16
ubr1∆
  protein stability index: 3.3 ± 0.048

## AFVEFGASVIAGGQRIV [SWP82]
doa10∆
  protein stability index: 2.21 ± 0.13
pdr5∆
  protein stability index: 2.35 ± 0.1
san1∆
  protein stability index: 2.02 ± 0.1
ubr1∆
  protein stability index: 2.07 ± 0.085

## NDELVELLANKCPLLVE [GRR1]
doa10∆
  protein stability index: 2.08 ± 0.058
pdr5∆
  protein stability index: 2.13 ± 0.04
san1∆
  protein stability index: 2.1 ± 0.078
ubr1∆
  protein stability index: 1.96 ± 0.035

## AACEKLLPPIKIELIKN [RPN12]
doa10∆
  protein stability index: 1.98 ± 0.19
pdr5∆
  protein stability index: 2.25 ± 0.094
san1∆
  protein stability index: 2.44 ± 0.098
ubr1∆
  protein stability index: 1.99 ± 0.072

## WCTTCKSAENIIKMTIP [RET1]
doa10∆
  protein stability index: 3.08 ± 0.077
pdr5∆
  protein stability index: 3.1 ± 0.095
san1∆
  protein stability index: 3.11 ± 0.067
ubr1∆
  protein stability index: 3.03 ± 0.071

## LVDVMTTQGGLTSVTRH [RPO21]
doa10∆
  protein stability index: 2.14 ± 0.1
pdr5∆
  protein stability index: 2.38 ± 0.072
san1∆
  protein stability index: 2.1 ± 0.09
ubr1∆
  protein stability index: 2.3 ± 0.069

## ISNVIKPNQTIMVLDAS [SRP54]
doa10∆
  protein stability index: 2.48 ± 0.062
pdr5∆
  protein stability index: 2.56 ± 0.053
san1∆
  protein stability index: 2.83 ± 0.06
ubr1∆
  protein stability index: 2.67 ± 0.059

## VSLCAKNMGLVPMKEEN [SSN2]
doa10∆
  protein stability index: 1.89 ± 0.086
pdr5∆
  protein stability index: 2.38 ± 0.075
san1∆
  protein stability index: 1.99 ± 0.11
ubr1∆
  protein stability index: 2.26 ± 0.093

## AFIFGLQDELKELQLEK [SMC3]
doa10∆
  protein stability index: 3.23 ± 0.12
pdr5∆
  protein stability index: 3.47 ± 0.11
san1∆
  protein stability index: 3.11 ± 0.12
ubr1∆
  protein stability index: 3.54 ± 0.19

## RGKKGLKKKVVDPFTRK [RPS1B]
doa10∆
  protein stability index: 3.73 ± 0.15
pdr5∆
  protein stability index: 3.34 ± 0.082
san1∆
  protein stability index: 3.35 ± 0.074
ubr1∆
  protein stability index: 3.27 ± 0.088
